The results in this text go back to publication PMC4714197, “The Tomato Nucleotide-binding Leucine-rich Repeat Immune Receptor I-2 Couples DNA-binding to Nucleotide-binding Domain Nucleotide Exchange” (The Journal of Biological Chemistry, 2015).

Data set [1] deals with T1, I-2_1–519 (Solanum lycopersicum, UniProt Q9XET3).
T1 construct: gene I2; CC-NB-ARC domains, residues 1-519, LRR lacking
Kind of data set: ATPase assay, 3H-ATP, TLC. The data set is classed as biochemical. Conditions: 5 uM ATP, 10 mM MgCl2, pH 7.5, 37 °C; without and with 2 uM DNA; labelled compound.

For data set [2], the system named is R1-NB (NB subdomain of Os02g_25900) (Oryza sativa (rice)). Kind of data set: EMSA. Conditions: apparent Kd; EMSA: 20 mM Tris-HCl pH 8.0, 60 mM NaCl, 2 mM EDTA, 1 mM DTT, 10% glycerol, 0.1 mg/ml BSA, 0.15 nM nucleic acid, 20 min on ice (nucleotide tests + 10 mM ZnCl2 …).
Data set [3] has as its target T1, I-2_1–519. Kind of data set: EMSA of […]-dsDNA binding with nucleotide. Conditions: 5 uM ADP, 10 mM ZnCl2, pH 8.0, on ice; ADP lowers DNA binding.
The target of data set [4] is T2, I-2_1–519 (Solanum lycopersicum, UniProt Q9XET3, S233F).
T2 construct: gene I2; CC-NB-ARC domains, residues 1-519, LRR lacking
Kind of data set: EMSA of […]-dsDNA binding with nucleotide. Conditions: 5 uM ADP compared with 5 uM ATP; 10 mM ZnCl2, pH 8.0, on ice.

In data set [5] the target is T3, I-2 CC-NB-ARC K207R (Solanum lycopersicum (tomato), UniProt Q9XET3 1-519, K207R).
T3 sequence: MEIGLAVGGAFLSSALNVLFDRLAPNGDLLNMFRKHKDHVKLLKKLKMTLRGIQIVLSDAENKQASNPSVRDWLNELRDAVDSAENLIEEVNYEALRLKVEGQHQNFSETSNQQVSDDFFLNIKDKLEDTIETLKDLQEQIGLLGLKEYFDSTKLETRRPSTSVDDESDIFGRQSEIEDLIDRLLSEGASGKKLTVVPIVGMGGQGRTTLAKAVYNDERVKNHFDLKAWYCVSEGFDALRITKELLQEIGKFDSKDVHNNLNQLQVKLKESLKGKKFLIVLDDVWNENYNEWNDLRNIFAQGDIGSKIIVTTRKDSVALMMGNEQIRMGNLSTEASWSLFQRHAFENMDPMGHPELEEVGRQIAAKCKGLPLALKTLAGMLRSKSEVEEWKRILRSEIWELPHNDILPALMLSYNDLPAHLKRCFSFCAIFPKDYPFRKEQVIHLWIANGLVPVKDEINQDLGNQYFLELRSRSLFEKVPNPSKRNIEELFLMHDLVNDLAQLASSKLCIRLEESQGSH
Kind of data set: fluorescence anisotropy; EMSA: 20 mM Tris-HCl pH 8.0, 60 mM NaCl, 2 mM EDTA, 1 mM DTT, 10% glycerol, 0.1 mg/ml BSA, 0.15 nM nucleic acid, 20 min on ice (nucleotide tests + 10 mM ZnCl2 as printed); anisotropy: 6.7 mM Tris-HCl pH 8.0, 3.3 mM Na acetate, 2 mM EDTA, 10 nM DNA, 25 C; P1: 20 mM Tris acetate pH 7.5, 10 mM Mg acetate, 100 mM NaCl, 37 C. Conditions: protein: recombinant; label: fluorescein end label on SS1s; blunt.

For data set [6], the target named is T4, I-2 CC-NB-ARC WT (I-2 1-519) (Solanum lycopersicum (tomato), UniProt Q9XET3 1-519).
T4 sequence: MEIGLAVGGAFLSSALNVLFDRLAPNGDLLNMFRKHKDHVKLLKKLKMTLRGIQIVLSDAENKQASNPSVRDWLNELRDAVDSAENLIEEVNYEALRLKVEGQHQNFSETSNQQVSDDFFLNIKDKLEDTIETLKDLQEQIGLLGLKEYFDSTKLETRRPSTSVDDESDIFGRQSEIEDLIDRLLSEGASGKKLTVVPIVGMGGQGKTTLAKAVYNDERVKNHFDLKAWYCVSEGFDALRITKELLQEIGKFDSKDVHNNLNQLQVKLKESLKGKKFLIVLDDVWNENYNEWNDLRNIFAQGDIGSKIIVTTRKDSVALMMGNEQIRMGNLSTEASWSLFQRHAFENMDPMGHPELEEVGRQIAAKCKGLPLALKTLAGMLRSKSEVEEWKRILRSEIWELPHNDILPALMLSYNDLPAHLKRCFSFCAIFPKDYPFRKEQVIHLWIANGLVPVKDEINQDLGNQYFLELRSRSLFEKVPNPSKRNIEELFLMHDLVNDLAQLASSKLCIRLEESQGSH
The description is as above. Conditions: protein: recombinant; label: fluorescein end label on SS1s; blunt.

Data set [7] concerns the target T4, I-2 CC-NB-ARC WT (I-2 1-519). Kind of data set: EMSA; apparent Kd; EMSA: 20 mM Tris-HCl pH 8.0, 60 mM NaCl, 2 mM EDTA, 1 mM DTT, 10% glycerol, 0.1 mg/ml BSA, 0.15 nM nucleic acid, 20 min on ice (nucleotide tests + 10 mM ZnCl2 as printed); anisotropy: 6.7 mM Tris-HCl pH 8.0, 3.3 mM Na acetate, 2 mM EDTA, 10 nM DNA, 25 C; P1: 20 mM Tris acetate pH 7.5, 10 mM Mg acetate, 100 mM NaCl, 37 C. Conditions: protein: recombinant, label: 32P end label.

The target of data set [8] is T3, I-2 CC-NB-ARC K207R. Described as above. Conditions: protein: recombinant; label: 32P end label; blunt.
The next data set addresses T5, I-2 CC-NB-ARC S233F (Solanum lycopersicum (tomato), UniProt Q9XET3 1-519, S233F).
T5 sequence: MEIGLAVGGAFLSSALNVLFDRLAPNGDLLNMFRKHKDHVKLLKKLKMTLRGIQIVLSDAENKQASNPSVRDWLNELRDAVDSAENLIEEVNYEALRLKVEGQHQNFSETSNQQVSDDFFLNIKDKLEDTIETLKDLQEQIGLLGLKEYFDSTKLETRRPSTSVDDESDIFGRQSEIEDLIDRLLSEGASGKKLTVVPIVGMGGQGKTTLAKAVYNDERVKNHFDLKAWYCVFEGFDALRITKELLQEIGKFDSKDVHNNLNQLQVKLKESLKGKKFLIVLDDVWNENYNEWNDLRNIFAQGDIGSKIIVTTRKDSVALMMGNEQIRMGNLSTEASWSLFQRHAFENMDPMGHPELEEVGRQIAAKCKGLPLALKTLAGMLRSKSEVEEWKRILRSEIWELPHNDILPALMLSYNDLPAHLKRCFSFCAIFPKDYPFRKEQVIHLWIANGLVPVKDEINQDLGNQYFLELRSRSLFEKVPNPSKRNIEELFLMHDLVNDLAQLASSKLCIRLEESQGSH
Kind of data set: EMSA; indistinguishable from WT; EMSA: 20 mM Tris-HCl pH 8.0, 60 mM NaCl, 2 mM EDTA, 1 mM DTT, 10% glycerol, 0.1 mg/ml BSA, 0.15 nM nucleic acid, 20 min on ice (nucleotide tests + 10 mM ZnCl2 as printed); anisotropy: 6.7 mM Tris-HCl pH 8.0, 3.3 mM Na acetate, 2 mM EDTA, 10 nM DNA, 25 C; P1: 20 mM Tris acetate pH 7.5, 10 mM Mg acetate, 100 mM NaCl, 37 C. Conditions: protein: recombinant; label: 32P end label; blunt.

The target in data set [9] is T4, I-2 CC-NB-ARC WT (I-2 1-519). Kind of data set: EMSA; 5 uM ATP, 10 mM ZnCl2 (so in the source); EMSA: 20 mM Tris-HCl pH 8.0, 60 mM NaCl, 2 mM EDTA, 1 mM DTT, 10% glycerol, 0.1 mg/ml BSA, 0.15 nM nucleic acid, 20 min on ice (nucleotide tests + 10 mM ZnCl2 as printed); anisotropy: 6.7 mM Tris-HCl pH 8.0, 3.3 mM Na acetate, 2 mM EDTA, 10 nM DNA, 25 C; P1: 20 mM Tris acetate pH 7.5, 10 mM Mg acetate, 100 mM NaCl, 37 C. Conditions: protein: recombinant; label: 32P end label; blunt.

Consider `Nc1ncnc2c1ncn2[C@@H]1O[C@H](COP(=O)(O)OP(=O)(O)OP(=O)(O)O)[C@@H](O)[C@H]1O` [ATP], for which the ATPase activity result on I-2_1–519 [1] is recorded as “The CC-NB-ARC domain of I-2 has a very low intrinsic ATPase activity in vitro”.
In the case of “TGGGTCAACGTGGGCAAAGATGTCCTAGCAATGTAATCGTCTATGACGTT [SS1 ssDNA (50 nt)]”, the Kd in data set [2] was determined as 3340 nM.
Regarding “TGGGTCAACGTGGGCAAAGATGTCCTAGCAATGTAATCGTCTATGACGTT (double strand) [SS1/SS2 dsDNA (50 bp)]”, the Kd in [2] was 2750 nM.
Turning to `Nc1ncnc2c1ncn2[C@@H]1O[C@H](COP(=O)(O)OP(=O)(O)O)[C@@H](O)[C@H]1O` [ADP], the “ratio of DNA binding with ADP vs with ATP or no nucleotide” value at I-2_1–519 [3] is ~ 0.65. Besides, on I-2_1–519 [4], the “% DNA binding with ADP relative to ATP” value is reported as 61 ± 7%.
Take “UGGGUCAACGUGGGCAAAGAUGUCCUAGCAAUGUAAUCGUCUAUGACGUU [ssRNA sense strand (50 nt)]”: the Kd in [2] turned out to be 12400 nM.

B1: SS1s/SS2s dsDNA (20 bp), anisotropy (dsDNA)
DNA 1: TGGGTCAACGTGGGCAAAGA
DNA 2: TCTTTGCCCACGTTGACCCA
Take B1: the figures for the Kd (with I-2 CC-NB-ARC K207R [5]; in data set [6]) were 940 ± 90 nM and 320 ± 50 nM, respectively.
Regarding TGGGTCAACGTGGGCAAAGATGTCCTAGCAATGTAATCGTCTATGACGTT (ssDNA) [SS1 ssDNA (50 nt)], the Kd in data set [7] (single strand) worked out at 150 ± 10 nM.

B2: SS1/SS2 dsDNA (50 bp) (dsDNA)
DNA 1: TGGGTCAACGTGGGCAAAGATGTCCTAGCAATGTAATCGTCTATGACGTT
DNA 2: AACGTCATAGACGATTACATTGCTAGGACATCTTTGCCCACGTTGACCCA
For B2, the Kd came out at 230 ± 10 nM with I-2 CC-NB-ARC K207R [8] and 220 ± 20 nM in [7] (blunt). In addition, in the data set with I-2 CC-NB-ARC S233F, the binding result is “binds”. In addition, the binding signal in data set [9] was ~1 ratio to no nucleotide.
